According to patent US20240150440A1 (LUMEN BIOSCIENCE, published 2024):

B1: PP806 MBP-R2B-E6-H6 (VHH)
VHH: QVQLVESGGGLVQPGGSLRLSCAASGGVTRGNAMAWYRQAPGKQREIVAAIDNGGSHAYGDSVKGRFTISRDNAKNTVYLQMNSLKPEDTAVYYCAVFPDHDSEQASIDRVYWGQGTQVTVSS
notes: Form: Monomer
B2: PP880 MBP-R5a-B5-H6 (VHH)
VHH: QVQLVESGGGLVQPGGSLRLSCAASGDDFIENAISWYRQAPGKGREWVAAVTLGGHSNYADSVKGRFTISRDNAKNTVYLQMNSLKPEDTAVYYCNYPVGIPAVAIDGRRSYGYWGQGTQVTVSS
notes: Form: Monomer
B3: PP883 MBP-R1e-D4-H6 (VHH)
VHH: QVQLVESGGGLVQPGGSLRLSCAASGSIREINAMHWVRQAPGKGRELVASIDSGSLDYYADSVKGRFTISRDNAKNTVYLQMNSLKPEDTAVYYCAASRSGDYRYWGQGTQVTVSS
notes: Form: Monomer
B4: PP902 MBP-5HVZ-R1e-D4-H6 (VHH)
VHH: B3 VHH
notes: Form: Dimer
B5: PP884 MBP-R1i-A11-H6 (VHH)
VHH: QVQLVESGGGLVQPGGSLRLSCAASGSILQINAIHWFRQAPGKQREEVAAITSGGSTGYADSVKGRFTISRDNAKNTVYLQMNSLKPEDTAVYYCAATSTRGGLDSDYWGQGTQVTVSS
notes: Form: Monomer
B6: PP881 MBP-R5a-F2-H6 (VHH)
VHH: QVQLVESGGGLVQPGGSLRLSCAASGSISSIEAMSWFRQAPGKQREGVATMASGGDTSYADSVKGRFTISRDNAKNTVYLQMNSLKPEDTAVYYCAAQTYRPDTWGRYTFWGQGTQVTVSS
notes: Form: Monomer
B7: PP823 MBP-R5B-C3-H6 (VHH)
VHH: QVQLVESGGGLVQPGGSLRLSCAASGGISVANVMHWFRQAPGKEREGVAGLTSEGSRYYADSVKGRFTISRDNAKNTVYLQMNSLKPEDTAVYYCAAEPTGNTHEFEYWGQGTQVTVSS
B8: PP922 MBP-R5a-F5-H6 (VHH)
VHH: QVQLVESGGGLVQPGGSLRLSCAASGYHASILAMHWVRQAPGKEREWVASMTWSDMTQYSDSVKGRFTISRDNAKNTVYLQMNSLKPEDTAVYYCAATYVTRDRPWTHWGQGTQVTVSS
notes: Form: Monomer
B9: PP910 MBP-5HVZ-S2b-C10-H6 (VHH)
VHH: QVQLVESGGGLVQPGGSLRLSCAASGSAFSLNYMAWFRQAPGKQREGVAIIGSGGSSDYADSVKGRFTISRDNAKNTVYLQMNSLKPEDTAVYYCAAQPNGSPDDFDYWGQGTQVTVSS
notes: Form: Dimer
B10: PP888 MBP-S1b-E11-H6 (VHH)
VHH: QVQLVESGGGLVQPGGSLRLSCAASGSYASIASMHWFRQAPGKEREFVAGVTSGGSTNYGDSVKGRFTISRDNAKNTVYLQMNSLKPEDTAVYYCNALAGANYESQWEEYNYWGQGTQVTVSS
notes: Form: Monomer
B11: PP928 MBP-5HVZ-R1i-E7-H6 (VHH)
VHH: QVQLVESGGGLVQPGGSLRLSCAASGTEYDISAAHWYRQAPGKQREWVAGVTSDNSTFYADSVKGRFTISRDNAKNTVYLQMNSLKPEDTAVYYCTATVKTSQYRYWGQGTQVTVSS
B12: PP913 MBP-5HVZ-S3a-C5-H6 (VHH)
VHH: QVQLVESGGGLVQPGGSLRLSCAASGSIKNTNAMHWFRQAPGKDREWVAGITSGGNSNYGDSVKGRFTISRDNAKNTVYLQMNSLKPEDTAVYYCAAFGYRYDQDYTYDYWGQGTQVTVSS
notes: Form: Dimer
B13: PP885 MBP-R5b-C5-H6 (VHH)
VHH: QVQLVESGGGLVQPGGSLRLSCAASGSPFKTQTVHWFRQAPGKGREWVASITSGSGTQYMDSVKGRFTISRDNAKNTVYLQMNSLKPEDTAVYYCAAANDGYGVDWGQGTQVTVSS
notes: Form: Monomer
B14: PP904 MBP-5HVZ-R5b-C5-H6 (VHH)
VHH: B13 VHH
notes: Form: Dimer
B15: PP1141 MBP-4B0F-PAPA-R5d-D4-H6 (VHH)
VHH: QVQLVESGGGLVQPGGSLRLSCAASGSDFTINAMHWFRQAPGKQREFVATITSTSSTAYRDSVKGRFTISRDNAKNTVYLQMNSLKPEDTAVYYCAAFAVRDADTAGWTARDYWGQGTQVTVSS
notes: Form: Heptamer
B16: PP788 (VHH, not shown: large carriers; small tags and cut ends)
VHH: QVQLVESGGGLVQPGGSLRLSCAASGSIESINAIHWFRQAPGKAREEVAAITENDVDYYADSVKGRFTISRDNAKNTVYLQMNSLKPEDTAVYYCASLSSGYQYVGFRYWGQGTQVTVSS
B17: PP916 MBP-5HVZ-S3b-A8-H6 (VHH)
VHH: QVQLVESGGGLVQPGGSLRLSCAASGSIISRVKVHWFRQAPGKSREWVAGIDSGTASYYSDSVKGRFTISRDNAKNTVYLQMNSLKPEDTAVYYCAAENRGYGVDWGQGTQVTVSS
notes: Form: Dimer
B18: PP887 MBP-S1b-E7-H6 (VHH)
VHH: QVQLVESGGGLVQPGGSLRLSCAASGGEFSDNGLHWFRQAPGKQREFVATASSDGSTQYRDSVKGRFTISRDNAKNTVYLQMNSLKPEDTAVYYCTALLMSSAGEYDVWGQGTQVTVSS
notes: Form: Monomer
B19: PP886 MBP-S1a-C4-H6 (VHH)
VHH: QVQLVESGGGLVQPGGSLRLSCAASGSRDSINTAHWYRQAPGKAREWVASLDNSTTGSYADSVKGRFTISRDNAKNTVYLQMNSLKPEDTAVYYCAAVTGTPGGLGFYDYWGQGTQVTVSS
B20: PP905 MBP-5HVZ-S1a-C4-H6 (VHH)
VHH: B19 VHH
notes: Form: Dimer
B21: PP901 MBP-5HVZ-R1e-B2-H6 (VHH)
VHH: QVQLVESGGGLVQPGGSLRLSCAASGQITAENYMHWYRQAPGKQREWVAAITTGGSTLYADSVKGRFTISRDNAKNTVYLQMNSLKPEDTAVYYCNADRSYFPDYWGQGTQVTVSS
notes: Form: Dimer
B22: PP1177 MPB-scTRP-PAPA-R2a-F3-H6 (VHH)
VHH: QVQLVESGGGLVQPGGSLRLSCAASGSITSINWMHWFRQAPGKDREGVASISQTGRGSYADSVKGRFTISRDNAKNTVYLQMNSLKPEDTAVYYCAAASRTGTPYNYWGQGTQVTVSS
notes: Form: Trimer
B23: PP914 MBP-5HVZ-S3a-H1-H6 (VHH)
VHH: QVQLVESGGGLVQPGGSLRLSCAASGGIYSPYSMHWFRQAPGKAREWVAGIVGGGGTTYSDSVKGRFTISRDNAKNTVYLQMNSLKPEDTAVYYCNANYQEYDEYDYWGQGTQVTVSS
notes: Form: Dimer

Columns and labels:
[1] = molecular target: SARS-CoV-2 spike protein on pseudotyped lentivirus (Wuhan Reference Pseudovirus) (SARS-CoV-2, UniProt P0DTC2 14-1273); assay: cell-based or functional assay
[2] = molecular target: T1, SARS-CoV-2 Alpha Variant RBD (SARS-CoV-2 Alpha variant); assay: ELISA, RBD coated
T1 construct: domain: RBD; coated on ELISA plates

[3] = molecular target: T2, SARS-CoV-2 Gamma Variant RBD (SARS-CoV-2 Gamma variant); assay: ELISA, RBD coated
T2 construct: domain: RBD; coated on ELISA plates

[4] = molecular target: T3, SARS-CoV-2 Beta Variant RBD (SARS-CoV-2 Beta variant); assay: ELISA, RBD coated
T3 construct: domain: RBD; coated on ELISA plates

Binder	infectivity % under 10 ug/mL VHH treatment [1] [%]	EC50 [2] [nM]	EC50 [3] [nM]	EC50 [4] [nM]
B1	86.5			
B2	58			
B3	94.3			
B4	72.4	123	451	
B5	91.3			
B6	83.2			
B7	65.5			
B8	67.7			
B9	65.1			
B10	80			
B11	78.5			
B12		1.33	61.1	114
B13	101			
B14		13	34.6	139
B15	73.1			
B16		5.88	16.8	27.6
B17		2.04	42.9	66.3
B18	85.7			
B19	84.8			
B20	75.7	447		
B21	72.1			
B22	51.1			
B23		2.94	10.5	19.4
